Here are results for one substance from patent US7105305.

In this experiment the target is type B human PDGF receptor (B-hPDGF-R) on transfected CHO cells (CHO-HR5) (human) (UniProt P09619). The experiment is described as follows: whole-cell 125I-PDGF binding, 37 C for 45 min, Ficoll gradient; non-specific binding taken from CHO cells.
Sequence of type B human PDGF receptor (B-hPDGF-R) on transfected CHO cells (CHO-HR5) (human) (P09619 33-1106 E241D): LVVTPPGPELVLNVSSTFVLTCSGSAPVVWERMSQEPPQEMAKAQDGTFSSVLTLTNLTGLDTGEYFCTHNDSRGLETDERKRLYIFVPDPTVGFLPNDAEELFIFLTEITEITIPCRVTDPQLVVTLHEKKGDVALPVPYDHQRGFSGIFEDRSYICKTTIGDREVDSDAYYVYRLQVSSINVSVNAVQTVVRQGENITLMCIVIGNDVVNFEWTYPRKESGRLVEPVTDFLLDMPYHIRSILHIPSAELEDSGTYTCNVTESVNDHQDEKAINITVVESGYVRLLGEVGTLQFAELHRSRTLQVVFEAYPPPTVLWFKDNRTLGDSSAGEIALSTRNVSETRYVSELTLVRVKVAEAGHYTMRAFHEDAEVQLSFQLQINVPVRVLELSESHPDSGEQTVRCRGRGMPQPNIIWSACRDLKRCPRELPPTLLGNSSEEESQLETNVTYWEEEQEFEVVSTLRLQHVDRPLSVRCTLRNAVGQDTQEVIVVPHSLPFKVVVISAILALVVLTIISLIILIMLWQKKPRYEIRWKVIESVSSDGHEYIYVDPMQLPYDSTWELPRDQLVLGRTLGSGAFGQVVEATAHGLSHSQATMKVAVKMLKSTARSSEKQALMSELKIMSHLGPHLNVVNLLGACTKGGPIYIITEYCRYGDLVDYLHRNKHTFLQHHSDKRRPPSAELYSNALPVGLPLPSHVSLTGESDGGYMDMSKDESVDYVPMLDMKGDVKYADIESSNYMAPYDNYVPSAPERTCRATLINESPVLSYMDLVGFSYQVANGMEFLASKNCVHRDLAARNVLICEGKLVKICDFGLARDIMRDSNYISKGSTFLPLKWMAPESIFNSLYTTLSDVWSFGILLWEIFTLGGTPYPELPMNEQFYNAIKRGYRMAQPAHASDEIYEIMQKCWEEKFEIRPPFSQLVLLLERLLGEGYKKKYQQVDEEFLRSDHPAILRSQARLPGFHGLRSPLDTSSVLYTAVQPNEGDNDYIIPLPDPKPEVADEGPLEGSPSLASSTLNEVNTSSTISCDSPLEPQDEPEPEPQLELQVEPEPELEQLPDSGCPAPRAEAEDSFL

Take ^125I-labeled PDGF (ligand): the non-specific binding as percent of the bound radioactivity is 25 percent.
